Results taken from US20180057604A1 (Genentech, published 2018).

Experiments:
[1] = target: T1, cyno TfR extracellular domain (analogous construct to human TfR ecd) (cynomolgus monkey, UniProt Q5RDH6 87-760 (Pongo abelii entry)); experiment: ELISA, TfR-coated plate, IgG in culture supernatant;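 further: human or cynomolgus TfR coated at 2 µg/mL, supernatant IgG titrated in 1:5 steps for 1 h, bound antibody read with HRP anti-human Fcγ and TMB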
T1 construct: also called cynoTfR ecd
T1 chain: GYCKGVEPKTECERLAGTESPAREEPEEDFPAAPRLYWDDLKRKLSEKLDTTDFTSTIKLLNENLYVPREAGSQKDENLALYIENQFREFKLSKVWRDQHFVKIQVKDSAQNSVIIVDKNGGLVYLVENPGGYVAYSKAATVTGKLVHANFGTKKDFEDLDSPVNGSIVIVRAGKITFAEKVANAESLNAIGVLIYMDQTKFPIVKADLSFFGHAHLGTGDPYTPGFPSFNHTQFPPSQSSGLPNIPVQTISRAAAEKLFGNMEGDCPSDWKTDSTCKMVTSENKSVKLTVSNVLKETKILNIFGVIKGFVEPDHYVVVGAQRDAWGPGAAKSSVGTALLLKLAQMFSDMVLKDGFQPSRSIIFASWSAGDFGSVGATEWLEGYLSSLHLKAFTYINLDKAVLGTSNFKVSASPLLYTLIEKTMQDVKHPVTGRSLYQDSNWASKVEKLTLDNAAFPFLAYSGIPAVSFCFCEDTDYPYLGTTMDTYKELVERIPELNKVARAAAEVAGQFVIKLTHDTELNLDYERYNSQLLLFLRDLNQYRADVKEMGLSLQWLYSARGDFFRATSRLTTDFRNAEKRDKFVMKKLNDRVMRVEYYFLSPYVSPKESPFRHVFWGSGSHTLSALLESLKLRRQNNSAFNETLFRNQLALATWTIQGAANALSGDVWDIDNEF
Protocol: (§1) The Hu/Cy binding ELISA was performed in maxisorp plates coated with 2 μg/ml of purified human or cyno TfR in PBS at 4° C. overnight. Plates were washed with PBS/0.05% Tween 20 and blocked using Superblock blocking buffer in PBS (Thermo Scientific, Hudson, N.H.). Cell culture supernatants containing the expressed Ala scan variant IgGs were serially diluted 1:5 and added to the wells for 1 h. Plates were washed with PBS/0.05% Tween 20 and 1:1000 diluted HRP-Goat-anti human Fcγ (Jackson ImmunoResearch) was added the plate and incubated for 1 hour at room temperature. Plates were washed with PBS/0.05% Tween 20 and detected using TMB substrate (BioFX Laboratories, Owings Mills).

[2] = target: T2, human TfR extracellular domain with N-terminal His tag (human, UniProt P02786 89-760); experiment: as above
T2 construct: Biotinylated in some assays; also called huTfR; HuTfR
Protocol: as §1

murine BACE1 ECD [3] = target: T3, murine BACE1 ECD; experiment: Octet, pH 7.5;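 further: antibodies captured on anti-human capture sensor tips, dissociation monitored in PBS with BSA, Kd obtained from kinetic fit to a one-to-one binding model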
T3 construct: analyte of the Octet assay (200 nM) and enzyme of the first short substrate assay
T3 sequence (single chain, as listed by the source limits assumed): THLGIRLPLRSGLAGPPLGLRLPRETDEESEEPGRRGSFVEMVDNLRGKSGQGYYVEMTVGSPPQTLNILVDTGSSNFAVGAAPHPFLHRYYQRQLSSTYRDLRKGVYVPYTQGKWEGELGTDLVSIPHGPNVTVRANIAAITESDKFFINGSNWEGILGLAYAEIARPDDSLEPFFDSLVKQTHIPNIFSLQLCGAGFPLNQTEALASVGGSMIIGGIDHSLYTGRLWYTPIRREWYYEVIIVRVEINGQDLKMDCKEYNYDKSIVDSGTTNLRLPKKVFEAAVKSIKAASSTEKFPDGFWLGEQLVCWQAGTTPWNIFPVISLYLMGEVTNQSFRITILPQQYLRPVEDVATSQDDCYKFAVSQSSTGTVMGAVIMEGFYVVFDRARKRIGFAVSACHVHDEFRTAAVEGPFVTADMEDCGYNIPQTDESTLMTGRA
Protocol: (§2) Anti-BACE1 antibodies were loaded onto anti-human capture (AHC) sensors (tips) followed by 60 seconds baseline in assay buffer. […] Tips were transferred to assay buffer for 5 minutes, 30 minutes, or 120 minutes depending on the off-rate, for off-rate measurement. Assay buffer was either PBS+0.1% BSA, pH 7.5; or PBS+0.1% BSA, pH 5.0. Kinetics were analyzed using a 1:1 binding model.

human BACE1 ECD [4] = target: T4, human BACE1 ECD; experiment: Octet, pH 7.5;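 further: antibodies captured on anti-human capture sensor tips, dissociation monitored in PBS with BSA, Kd obtained from kinetic fit to a one-to-one binding model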
T4 construct: analyte of the Octet assay (200 nM) and enzyme of the first short substrate assay; also called human BACE1 extracellular domain
T4 sequence (single chain, as listed by the source limits assumed): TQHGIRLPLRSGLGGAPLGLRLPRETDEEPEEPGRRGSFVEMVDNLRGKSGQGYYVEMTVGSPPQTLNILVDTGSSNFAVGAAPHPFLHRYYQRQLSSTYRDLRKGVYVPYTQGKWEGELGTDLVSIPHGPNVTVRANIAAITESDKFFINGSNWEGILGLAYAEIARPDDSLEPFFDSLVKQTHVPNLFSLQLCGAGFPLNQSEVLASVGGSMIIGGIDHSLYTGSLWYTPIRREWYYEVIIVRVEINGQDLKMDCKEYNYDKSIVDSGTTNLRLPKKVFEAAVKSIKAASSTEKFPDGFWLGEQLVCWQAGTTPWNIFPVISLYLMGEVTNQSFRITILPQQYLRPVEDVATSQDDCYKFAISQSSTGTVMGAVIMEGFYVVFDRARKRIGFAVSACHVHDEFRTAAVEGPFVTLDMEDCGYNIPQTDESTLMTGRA
Protocol: as §2

murine BACE1 ECD [5] = target: T3, murine BACE1 ECD; experiment: Octet, pH 5.0;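 further: antibodies captured on anti-human capture sensor tips, dissociation monitored in PBS with BSA buffer, kinetics fitted with a one-to-one binding model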
Protocol: as §2

human BACE1 ECD [6] = target: T4, human BACE1 ECD; experiment: Octet, pH 5.0;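 further: antibodies captured on anti-human capture sensor tips, dissociation monitored in PBS with BSA buffer, kinetics fitted with a one-to-one binding model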
Protocol: as §2

[7] = target: BACE1 in primary mouse cortical neurons (mouse, UniProt P56818 46-501); experiment: cell-based or functional assay
BACE1 in primary mouse cortical neurons, sequence (P56818 46-501): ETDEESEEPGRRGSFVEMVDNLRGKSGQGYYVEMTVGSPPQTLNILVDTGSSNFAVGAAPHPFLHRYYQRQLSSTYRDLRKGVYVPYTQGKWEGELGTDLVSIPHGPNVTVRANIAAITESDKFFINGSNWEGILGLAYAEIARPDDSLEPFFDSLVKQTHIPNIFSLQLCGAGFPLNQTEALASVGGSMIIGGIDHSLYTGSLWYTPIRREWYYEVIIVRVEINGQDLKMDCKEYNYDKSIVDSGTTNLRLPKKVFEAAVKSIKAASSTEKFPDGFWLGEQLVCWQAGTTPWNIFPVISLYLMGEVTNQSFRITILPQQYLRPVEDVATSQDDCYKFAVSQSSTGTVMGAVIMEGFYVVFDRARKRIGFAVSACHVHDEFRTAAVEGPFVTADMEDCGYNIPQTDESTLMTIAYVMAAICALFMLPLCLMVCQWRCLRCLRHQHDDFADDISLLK

[8] = target: T2, human TfR extracellular domain with …; experiment: SPR, TfR captured by anti-His, Fab injected;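 further: single cycle kinetics with a Fab dilution series, fitted by a one-to-one Langmuir model or a steady state model, KD taken as koff over kon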
Target sequence in this assay (P02786 89-760 G142S): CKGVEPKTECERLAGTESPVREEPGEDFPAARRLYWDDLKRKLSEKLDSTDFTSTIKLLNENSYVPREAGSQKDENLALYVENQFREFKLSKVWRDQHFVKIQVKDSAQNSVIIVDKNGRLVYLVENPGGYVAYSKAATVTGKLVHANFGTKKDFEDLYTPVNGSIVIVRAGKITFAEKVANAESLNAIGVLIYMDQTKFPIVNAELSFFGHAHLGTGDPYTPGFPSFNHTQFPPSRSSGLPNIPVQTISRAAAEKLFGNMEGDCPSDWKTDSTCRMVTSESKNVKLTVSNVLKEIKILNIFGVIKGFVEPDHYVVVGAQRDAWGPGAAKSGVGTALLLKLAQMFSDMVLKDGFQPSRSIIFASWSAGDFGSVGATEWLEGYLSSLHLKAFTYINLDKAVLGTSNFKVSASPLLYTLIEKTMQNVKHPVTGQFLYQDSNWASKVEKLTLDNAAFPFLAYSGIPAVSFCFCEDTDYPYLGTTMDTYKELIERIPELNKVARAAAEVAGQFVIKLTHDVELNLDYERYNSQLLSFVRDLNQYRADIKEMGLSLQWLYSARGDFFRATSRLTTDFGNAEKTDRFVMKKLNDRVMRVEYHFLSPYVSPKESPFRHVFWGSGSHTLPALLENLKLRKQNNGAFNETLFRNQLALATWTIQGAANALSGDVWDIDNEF
Protocol: Antibody affinities were measured using surface plasmon resonance (“SPR”) (Biacore™, GE Healthcare). Anti-His antibody (Qiagen) was coupled onto four different flow cells of a BIACORE™ CM5 sensor chip (Biacore, Inc., Piscataway, N.J.) at between 6000 and 8000 RU. Immobilization was achieved by random coupling through amino groups using a protocol provided by the manufacturer. 10×HBS-P (Biacore, Inc., Piscataway, N.J.) was diluted in water and served as the dilution and running buffer. Purified human or cyno TfR was captured, followed by a 3-fold dilution series of IgG or Fab that was injected at a flow rate of 30 ml/min using the single cycle kinetics method. Affinity constants were determined using a simple 1:1 Langmuir binding model or using a steady state model when kₒₙ or koff was beyond the detection limit. The equilibrium dissociation constant (KD) was calculated as the ratio of association rate constant (kₒₙ) and dissociation rate constant (koff).
In both cases, the SPR experiments were performed as described above.

Row | Binder | EC50 [1] [ng/mL] | EC50 [2] [ng/mL] | Kd (murine BACE1 ECD [3]) [nM] | Kd (human BACE1 ECD [4]) [nM] | Kd (murine BACE1 ECD [5]) [nM] | Kd (human BACE1 ECD [6]) [nM] | IC50, Abeta x-40 in mouse cortical neurons [7] [nM] | maximal % inhibition of Abeta x-40 [7] [%] | Kd [8] [nM] | koff [8] [s⁻¹] | kon [8] [M⁻¹ s⁻¹]
1 | hu15G11.v5 IgG Ala variant T30A (HVR-H1) (antibody, name in Kabat numbering, V domains shown, IgG in cell culture supernatant) VH: EVQLVQSGAEVKKPGASVKVSCKASGYTFASYWMHWVRQAPGQRLEWIGEINPTNGRTNYIEKFKSRATLTVDKSASTAYMELSSLRSEDTAVYYCARGTRAYHYWGQGTMVTVSS VL: DIQMTQSPSSLSASVGDRVTITCRASDNLYSNLAWYQQKPGKSPKLLVYDATNLADGVPSRFSGSGSGTDYTLTISSLQPEDFATYYCQHFWGTPLTFGQGTKVEIK | 0.9 | 0.4 |  |  |  |  |  |  |  |  | 
2 | hu15G11.v5 IgG Ala variant Y32A (HVR-H1) (antibody, name in Kabat numbering, V domains shown, IgG in cell culture supernatant) VH: EVQLVQSGAEVKKPGASVKVSCKASGYTFTSAWMHWVRQAPGQRLEWIGEINPTNGRTNYIEKFKSRATLTVDKSASTAYMELSSLRSEDTAVYYCARGTRAYHYWGQGTMVTVSS VL: DIQMTQSPSSLSASVGDRVTITCRASDNLYSNLAWYQQKPGKSPKLLVYDATNLADGVPSRFSGSGSGTDYTLTISSLQPEDFATYYCQHFWGTPLTFGQGTKVEIK | 1.4 | 0.4 |  |  |  |  |  |  |  |  | 
3 | hu15G11.v5 IgG Ala variant Y59A (HVR-H2) (antibody, name in Kabat numbering, V domains shown, IgG in cell culture supernatant; Kabat numbers after 52a lie one below the linear count) VH: EVQLVQSGAEVKKPGASVKVSCKASGYTFTSYWMHWVRQAPGQRLEWIGEINPTNGRTNAIEKFKSRATLTVDKSASTAYMELSSLRSEDTAVYYCARGTRAYHYWGQGTMVTVSS VL: DIQMTQSPSSLSASVGDRVTITCRASDNLYSNLAWYQQKPGKSPKLLVYDATNLADGVPSRFSGSGSGTDYTLTISSLQPEDFATYYCQHFWGTPLTFGQGTKVEIK | 0.7 | 0.3 |  |  |  |  |  |  |  |  | 
4 | hu15G11.v5 IgG Ala variant T52A (HVR-L2) (antibody, V domains shown, IgG in cell culture supernatant) VH: EVQLVQSGAEVKKPGASVKVSCKASGYTFTSYWMHWVRQAPGQRLEWIGEINPTNGRTNYIEKFKSRATLTVDKSASTAYMELSSLRSEDTAVYYCARGTRAYHYWGQGTMVTVSS VL: DIQMTQSPSSLSASVGDRVTITCRASDNLYSNLAWYQQKPGKSPKLLVYDAANLADGVPSRFSGSGSGTDYTLTISSLQPEDFATYYCQHFWGTPLTFGQGTKVEIK | 0.3 | 0.2 |  |  |  |  |  |  |  |  | 
5 | hu15G11.v5 IgG Ala variant T53A (HVR-H2) (antibody, V domains shown, IgG in cell culture supernatant; also called 15G11.T53A; 15G11.53A) VH: EVQLVQSGAEVKKPGASVKVSCKASGYTFTSYWMHWVRQAPGQRLEWIGEINPANGRTNYIEKFKSRATLTVDKSASTAYMELSSLRSEDTAVYYCARGTRAYHYWGQGTMVTVSS VL: DIQMTQSPSSLSASVGDRVTITCRASDNLYSNLAWYQQKPGKSPKLLVYDATNLADGVPSRFSGSGSGTDYTLTISSLQPEDFATYYCQHFWGTPLTFGQGTKVEIK | 0.7 | 0.3 |  |  |  |  |  |  |  |  | 
6 | hu15G11.v5 IgG Ala variant Y30A (HVR-L1) (antibody, V domains shown, IgG in cell culture supernatant) VH: EVQLVQSGAEVKKPGASVKVSCKASGYTFTSYWMHWVRQAPGQRLEWIGEINPTNGRTNYIEKFKSRATLTVDKSASTAYMELSSLRSEDTAVYYCARGTRAYHYWGQGTMVTVSS VL: DIQMTQSPSSLSASVGDRVTITCRASDNLASNLAWYQQKPGKSPKLLVYDATNLADGVPSRFSGSGSGTDYTLTISSLQPEDFATYYCQHFWGTPLTFGQGTKVEIK | 1 | 0.3 |  |  |  |  |  |  |  |  | 
7 | 5987 (antibody, V domains shown, anti-BACE1 IgG) VH: QVQLVQSGAEVKKPGSSVKVSCKASGGTLSGYAISWVRQAPGQGLEWMGNIIPGFGTANYAQKSQGRVTITADESTSTAYMELSSLRSEDTAVYYCARSGGTRYGMLDVWGQGTMVTVSS VL: EIVMTQSPATLSVSPGERATLSCRASQSVSSNLAWYQQKPGQAPRLLIYGASTRATGIPARFSGSGSGTEFTLTISSLQSEDFAVYYCQQLFLWPPRTFGGGTKVEIK |  |  | < 0.29 | < 0.32 | < 0.29 | < 0.25 | 7.2 | 69 |  |  | 
8 | 6272 (antibody, V domains shown, anti-BACE1 IgG) VH: QVQLVQSGAEVKKPGSSVKVSCKASGGTFSGYGISWVRQAPGQGLEWMGNIIPGFGTANYAQKFQGRVTITADESTSTAYMELSSLRSEDTAVYYCARSGGTKYGMLDVWGQGTMVTVSS VL: EIVMTQSPATLSVSPGERATLSCRASQSVSSNLAWYQQKPGQAPRLLIYGASTRATGIPARFSGSGSGTEFTLTISSLQSEDFAVYYCQQLFLWPPRTFGGGTKVEIK |  |  | < 0.41 | < 0.87 | < 0.4 | < 0.39 | 43.6 | 82 |  |  | 
9 | 5988 (antibody, V domains shown, anti-BACE1 IgG) VH: QVQLVQSGAEVKKPGSSVKVSCKASGGTLSGYAISWVRQAPGQGLEWMGNIIPGFGTANYAQKSQGRVTITADESTSTAYMELSSLRSEDTAVYYCARSGGTRYGMLDVWGQGTMVTVSS VL: GIVMTQSPATLSVSPGERATLSCRASQSVGSNLAWYQQKPGQAPRLLIYGASTRATGIPARFSGSGSGTEFTLTISSLQSEDFAVYYCQQLYTWPPRTFGGGTKVEIK |  |  | < 0.29 | < 0.29 | < 0.29 | < 0.25 | 3.55 | 75 |  |  | 
10 | 6276 (antibody, V domains shown, anti-BACE1 IgG) VH: QVQLVQSGAEVKKPGSSVKVSCKASGGTFRGYAISWVRQAPGQGLEWMGNIIPGLSTANYAQKFQGRVTITADESTSTAYMELSSLRSEDTAVYYCARSGGTKYGMLDVWGQGTMVTVSS VL: EIVMTQSPATLSVSPGERATLSCRASQSVSSNLAWYQQKPGQAPRLLIYGASTRATGIPARFSGSGSGTEFTLTISSLQSEDFAVYYCQQLILWPPRTFGGGTKVEIK |  |  | < 0.62 | < 0.59 | < 0.54 | < 0.41 | 7.4 | 81 |  |  | 
11 | 6271 (antibody, V domains shown, anti-BACE1 IgG) VH: QVQLVQSGAEVKKPGSSVKVSCKASGGTISGYGISWVRQAPGQGLEWMGNIIPGFGTANYAQKFQGRVTITADESTSTAYMELSSLRSEDTAVYYCARSGGTKYGMLDVWGQGTMVTVSS VL: EIVMTQSPATLSVSPGERATLSCRASQSVSSNLAWYQQKPGQAPRLLIYGASTRATGIPARFSGSGSGTEFTLTISSLQSEDFAVYYCQQLILWPPRTFGGGTKVEIK |  |  | < 0.31 | < 0.31 | < 0.31 | < 0.24 | 1.77 | 83 |  |  | 
12 | 6273 (antibody, V domains shown, anti-BACE1 IgG) VH: QVQLVQSGAEVKKPGSSVKVSCKASGGTFSGYGISWVRQAPGQGLEWMGNIIPGFGTANYAQKFQGRVTITADESTSTAYMELSSLRSEDTAVYYCARSGGTKYGMLDVWGQGTMVTVSS VL: EIVMTQSPATLSVSPGERATLSCRASQSVSSNIAWYQQKPGQAPRLLIYGASTRATGIPARFSGSGSGTEFTLTISSLQSEDFAVYYCQQLLLWPPRTFGGGTKVEIK |  |  | < 0.39 | < 0.39 | < 0.4 | < 0.26 | 5.71 | 82 |  |  | 
13 | Hu7A4.v5.Fab (Fab, V domains shown, Fab) VH: EVQLVQSGAEVKKPGASVKVSCKASGYTFTDYAMHWVRQAPGQGLEWMGGISTYFGRTNYNQKFKGRVTMTRDTSISTAYMELSRLRSDDTAVYYCARGLSGNYVMDYWGQGTTVTVSS VL: DIVMTQSPDSLAVSLGERATINCRASESVDSYGNSFMHWYQQKPGQPPKLLIYRASNLESGIPDRFSGSGSGTDFTLTISSLQAEDVAVYYCQQSNEGPPTFGQGTKLEIK |  |  |  |  |  |  |  |  | 0.686 | 0.00153 | 2.24e+06
14 | Hu7A4.v8.Fab (Fab, V domains shown, Fab) VH: EVQLVQSGAEVKKPGASVKVSCKGSGYTFTDYAMHWVRQAPGQGLEWMGGISTYFGRTNYNQKFKGRVTMTVDTSISTAYMELSRLRSDDTAVYYCARGLSGNYVMDYWGQGTTVTVSS VL: DIVMTQSPDSLAVSLGERATINCRASESVDSYGNSFMHWYQQKPGQPPKLLIYRASNLESGIPDRFSGSGSGTDFTLTISSLQAEDVAVYYCQQSNEGPPTFGQGTKLEIK |  |  |  |  |  |  |  |  | 1.15 | 0.00107 | 928000
